Experimental data published in publication PMC5009064 (Cell Reports, 2016).
One block for each molecule: values may come before it.

What was measured:
[1] = biological target: T1, HOIP-PUB domain (UniProt Q96EP0 71-142); assay: ITC
T1 chain: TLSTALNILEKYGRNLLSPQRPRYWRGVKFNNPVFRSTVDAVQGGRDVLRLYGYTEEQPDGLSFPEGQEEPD

[2] = biological target: T2, HOIP-PUB domain (UniProt Q96EP0 71-142); assay: ITC; 293 K, ITC-200; 25 mM HEPES pH 7.5, 150 mM NaCl, 0.5 mM TCEP; 20 injections of 2 ul HOIP-PUB domain into peptide or domain in the cell; 1:1 binding model; conditions: both partners purified
T2 construct: PUB domain of HOIP, as used for ITC; also called PUB domain of HOIP
T2 sequence (looked up): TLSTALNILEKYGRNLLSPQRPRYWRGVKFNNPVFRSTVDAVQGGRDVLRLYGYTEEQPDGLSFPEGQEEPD

[3] = biological target: T3, HOIP-PUB domain (Homo sapiens, UniProt Q96EP0); assay: ITC of HOIP-PUB domain titrated into peptide or protein; assay type: binding; conditions: 398 μM HOIP-PUB domain titrated into CYLD-USP domain at 40 μM; 293 K; 25 mM HEPES (pH 7.5), 150 mM NaCl, 0.5 mM TCEP
T3 sequence (Q96EP0 71-142 limits assumed): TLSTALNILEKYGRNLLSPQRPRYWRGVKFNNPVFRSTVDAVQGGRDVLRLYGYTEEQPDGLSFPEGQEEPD
Description: (B) ITC characterization of the interactions between (A) the HOIP-PUB domain (597 μM) and a peptide derived from the PIM motif (58 μM) of OTULIN and (B) the HOIP-PUB domain (398 μM) and the CYLD-USP domain (40 μM). For each titration, the raw data and normalized integrated heats are reported. (C) HEK293 cells were transfected with different combinations of CYLD, SPATA2, and OTULIN together with FLAG-HOIP. Protein complexes were subsequently purified using anti-FLAG beads and analyzed by western blotting. (D) SPATA2 expression was suppressed in FLAG-HOIP transfected HEK293 cells using siRNA. FLAG-HOIP was subsequently immunoprecipitated and tested for associated proteins by western blot analysis. (E) A549 cells were transfected with control or SPATA2 siRNA. After 72 hr, cells were subjected to TNFR1-SC purification and analyzed by western blotting. […] They name protein/peptide pairs, not small molecules. / Panel B, Kd: the lowered letter after K is small; read as d.
Samples were subsequently analyzed by western blotting. (B) HOIP-deficient A549 cells were reconstituted with HOIP-WT or HOIP-N102A. […] Samples were analyzed by western blotting. […] Following anti-GFP IP, SPATA association with HOIP and CYLD was evaluated by western blot analysis. […] Bound GST-containing protein was subsequently detected by HRP immunofluorescence, and the signal of both membranes was overlaid. […]

- Kd [1]: 3200 nM
Molecule: AEHEEDMYRA [peptide derived from the PIM motif of OTULIN]

- Kd [2]: 900 nM
B1: peptide derived from the C-terminal region of SPATA2 (peptide)
peptide: RGTYFSTQDDVDLYTDSEPR
notes: SPATA2 PIM peptide; also called SPATA2 peptide; PIM of SPATA2

- direct interaction by ITC [3]: could not detect a direct interaction
B2: CYLD-USP: USP domain of CYLD, protein domain titrated by ITC (protein)
chain: KGIQGHYNSCYLDSTLFCLFAFSSVLDTVLLRPKEKNDVEYYSETQELLRTEIVNPLRIYGYVCATKIMKLRKILEKVEAASGFTSEEKDPEEFLNILFHHILRVEPLLKIRSAGQKVQDCYFYQIFMEKNEKVGVPTIQQLLEWSFINSNLKFAEAPSCLIIQMPRFGKDFKLFKKIFPSLELNITDLLEDTPRQCRICGGLAMYECRECYDDPDISAGKIKQFCKTCNTQVHLHPKRLNHKYNPVSLPKDLPDWDWRHGCIPCQNMELFAVLCIETSHYVAFVKYGKDDSAWLFFDSMADRDGGQNGFNIPQVTPCPEVGEYLKMSLEDLHSLDSRRIQGCARRLLCDAYMCMYQSP
